# T1: TP-51 peptide (aa 352-414 of SEQ ID NO:1) (human)
# T1 construct: Synthetic peptide (Pepscan)
# T1 peptide: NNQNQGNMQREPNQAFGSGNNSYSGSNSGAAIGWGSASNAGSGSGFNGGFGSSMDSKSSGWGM
# What was measured:
# [1] = target: T1, TP-51 peptide (aa 352-414 of SEQ ID …); test: SPR 8K, mAb captured, TP-51 injected; IgG1
# Procedure: (§1) The instrument was primed with running buffer PBS-P+. Fc 1-2 of channels 1-8 (8 K) were activated with a fresh solution of EDC/NHS(Amine Coupling Kit, 1:1 ratio of both reagents, GE Healthcare Life Sciences, BR-1006-33) at 10 µL/min for 420 sec and goat anti-human antibody (GE Healthcare Life Sciences, 29234600) was immobilized at 25 µg/mL in 10 mM sodium acetate pH 5 for 420 sec. Next, all Fc were quenched with 1 M ethanol amine(GE Healthcare Life Sciences, BR-1006-33), for 420 sec. Any non-covalently bound antibodies were removed by two regenerations with 10 mM Glycine-HCl pH 1.7 for 30 sec. Immobilization levels were evaluated following ethanolamine quenching (10000 RU for all channels).
# (§2) Each cycle started with non-covalent capture of humanized variants which were diluted in running buffer to a final concentration of 2 µg/mL and injected for 60 sec with a flow rate of 10 µL/min. TDP-43 mAbs were captured on channels 1-8, leaving Fc 1 as a blank Fc. Capture levels were evaluated following a 120 sec stabilization period after each mAb injection and ranged from 300-500 RU.
# (§3) Injections of TP-51 peptide (Pepscan) were performed in single-cycle kinetics with increasing concentrations ranging from 1.2-100 nM prepared from serial 3-fold dilutions. Injections were performed with contact times of 300 sec/injection at a flow rate of 25 µL/min. A dissociation phase of 3600 sec followed the final injection. Sensor surface was regenerated by one injection of 10 mM Glycine-HCl pH 1.7 at a flow rate of 10 µL/min for 120 sec, followed by a stabilization period of 300 sec. Results obtained from single-cycle kinetics were double-referenced using the blank Fc 1 and buffer cycles and evaluated by Biacore 8 K evaluation software with 1:1 kinetic fit model with RI and global Rmax. The following kinetic parameters were obtained: association rate constant (ka), dissociation rate constant (kd), affinity constant (KD) and saturation response (Rmax).
# [2] = target: T2, recombinant human full-length TDP-43 (TAR DNA-binding protein 43), soluble (human, UniProt Q13148 1-414); test: SPR 8K, immobilized soluble TDP-43; IgG1
# T2 construct: Used on Luminex beads, coated on ELISA plates, and immobilized or injected in SPR; also called FL TDP-43; TDP-43 protein
# T2 sequence (Q13148 whole entry): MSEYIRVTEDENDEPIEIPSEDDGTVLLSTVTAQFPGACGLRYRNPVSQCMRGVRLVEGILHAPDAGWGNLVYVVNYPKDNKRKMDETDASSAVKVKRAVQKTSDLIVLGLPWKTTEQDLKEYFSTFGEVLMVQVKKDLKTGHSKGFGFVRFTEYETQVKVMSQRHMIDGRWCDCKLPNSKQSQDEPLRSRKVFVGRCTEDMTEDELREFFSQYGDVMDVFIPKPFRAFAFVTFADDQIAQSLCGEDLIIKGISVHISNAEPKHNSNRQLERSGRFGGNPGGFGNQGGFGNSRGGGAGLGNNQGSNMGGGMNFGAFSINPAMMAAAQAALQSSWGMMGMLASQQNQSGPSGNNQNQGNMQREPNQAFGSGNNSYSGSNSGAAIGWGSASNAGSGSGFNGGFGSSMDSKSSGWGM
# Procedure: (§4) The instrument was primed with running buffer PBS-P+ and flow cells (Fc) 1 and 2 of channels 1-8 were activated with a fresh solution of EDC/NHS (Amine Coupling Kit, 1:1 ratio of both reagents, GE Healthcare Life Sciences, BR-1006-33) at 10 µL/min for 420 sec. Soluble TDP-43 (Selvita) was diluted in sodium acetate pH 4.5 to a final concentration of 5 µg/mL and injected for 900 sec with a flow rate of 5 µL/min on Fc 2. All flow cells were quenched with 1 M ethanol amine (GE Healthcare Life Sciences, BR-1006-33), at 10 µL/min for 420 sec. Immobilization levels after ethanolamine quenching were 680 RU on all eight channels. Prior to analysis, two Startup cycles were run. Increasing mAbs concentrations were injected in single-cycle kinetics ranging from 1.2 to 100 nM, prepared from a 3-fold serial dilution in running buffer, with a contact time of 300 sec and a dissociation time of 900 sec at a flow rate of 30 µL/min. Each cycle was followed by one regeneration using 10 mM Glycine-HCl pH 1.7 with a contact time of 30 sec at 30 µL/min, followed by a stabilization period of 300 sec. Results obtained from single-cycle kinetics were double-referenced using the blank Fc 1 and buffer cycles and evaluated using Biacore 8 K evaluation software using the 1:1 kinetic fit model with RI and global Rmax. The following kinetic parameters were obtained: association rate constant (ka), dissociation rate constant (kd), affinity constant (KD) and saturation response (Rmax).
# [3] = target: T2, recombinant human full-length TDP-43 …; test: SPR 8K, immobilized soluble TDP-43
# Procedure: as §4
# [4] = target: T1, TP-51 peptide (aa 352-414 of SEQ ID …); test: SPR 8K, mAb captured, TP-51 injected
# Procedure: as §1, §2, §3
Kd [1],koff [1],kon [1],Kd [2],koff [2],kon [2],Kd [3],koff [3],kon [3],Kd [4],koff [4],kon [4],Binder
6.4 nM,0.0011 s⁻¹,170000 M⁻¹ s⁻¹,0.652 nM,2.2e-05 s⁻¹,47000 M⁻¹ s⁻¹,–,–,–,–,–,–,"hACI-7069-633B12-Ab1_H16L14 (IgG1) (antibody, V domains shown, Human IgG1 / kappa) VH: EVQLVQSGAEVKKPGASVKVSCKASGFTFTEYSMHWVRQAPGQRLEWMGGINPGNAGTSYNQKFKGRVTITVDTSASTAYMELSSLRSEDTAVYYCARESWGQGTTVTVSS VL: DVVMTQSPLSLPVTLGQPASISCKSSQSLLHSDAKTYLNWLQQRPGQSPRRLIYLVSKLDSGVPDRFSGSGSGTDFTLKISRVEAEDLGVYYCFQGTHFPHTFGQGTKLEIK"
–,–,–,–,–,–,0.508 nM,1.5e-05 s⁻¹,29000 M⁻¹ s⁻¹,2.3 nM,0.00026 s⁻¹,110000 M⁻¹ s⁻¹,"hACI-7069-633B12-Ab1_H19L19 (IgG4) (antibody, V domains shown) VH: QVQLVQSGAEVKKPGASVKVSCKTSGFTFTEYSMHWVRQAPGQRLEWIGGINPGNAGTSYNQKFKGRVTITVDTSASTAYMELSSLRSEDTAVYYCARESWGQGTTVTVSS VL: DVVMTQSPLSLPVTLGQPASISCKSSQSLLHSDAKTYLNWLQQRPGQSPKRLIYLVSKLDSRVPDRFSGSGSGTDFTLKISRVEAEDLGVYYCFQGTHFPHTFGQGTKLEIK"
6.2 nM,0.00021 s⁻¹,35000 M⁻¹ s⁻¹,0.145 nM,6.4e-06 s⁻¹,44000 M⁻¹ s⁻¹,–,–,–,–,–,–,"hACI-7069-633B12-Ab1_H23L20 (IgG1) (antibody, V domains shown, Human IgG1 / kappa) VH: QVQLVQSGAEVKKPGASVKVSCKTSGFTFTEYSMHWVRQAPGQRLEWIGGINPGNGGTSYNQKFKGRVTITVDTSASTAYMELSSLRSEDTAVYYCARESWGQGTTVTVSS VL: DVVMTQSPLSLPVTLGQPASISCKSSQSLLHSDGKTYLNWLQQRPGQSPRRLIYLVSKLDSRVPDRFSGSGSGTDFTLKISRVEAEDLGVYYCWQGTHFPHTFGQGTKLEIK"
–,–,–,–,–,–,0.45 nM,1.4e-05 s⁻¹,32000 M⁻¹ s⁻¹,2.1 nM,0.00021 s⁻¹,97000 M⁻¹ s⁻¹,"hACI-7069-633B12-Ab1_H20L18 (IgG4) (antibody, V domains shown) VH: EVQLVQSGAEVKKPGASVKVSCKTSGFTFTEYSMHWVRQAPGQRLEWIGGINPGNAGTSYNQKFKGRVTITVDTSASTAYMELSSLRSEDTAVYYCARESWGQGTTVTVSS VL: DVVMTQSPLSLPVTLGQPASISCKSSQSLLHSDAKTYLNWLQQRPGQSPRRLIYLVSKLDSRVPDRFSGSGSGTDFTLKISRVEAEDLGVYYCFQGTHFPHTFGQGTKLEIK"
1.4 nM,0.00023 s⁻¹,170000 M⁻¹ s⁻¹,0.235 nM,1.8e-05 s⁻¹,47000 M⁻¹ s⁻¹,–,–,–,–,–,–,"hACI-7069-633B12-Ab1_H20L19 (IgG1) (antibody, V domains shown, Human IgG1 / kappa) VH: EVQLVQSGAEVKKPGASVKVSCKTSGFTFTEYSMHWVRQAPGQRLEWIGGINPGNAGTSYNQKFKGRVTITVDTSASTAYMELSSLRSEDTAVYYCARESWGQGTTVTVSS VL: DVVMTQSPLSLPVTLGQPASISCKSSQSLLHSDAKTYLNWLQQRPGQSPKRLIYLVSKLDSRVPDRFSGSGSGTDFTLKISRVEAEDLGVYYCFQGTHFPHTFGQGTKLEIK"
–,–,–,0.113 nM,8.3e-06 s⁻¹,74800 M⁻¹ s⁻¹,–,–,–,–,–,–,"hACI-7069-633B12-Ab1_H15L18 (IgG1) (antibody, V domains shown, Human IgG1 / kappa) VH: QVQLVQSGAEVKKPGASVKVSCKASGFTFTEYSMHWVRQAPGQRLEWMGGINPGNAGTSYNQKFKGRVTITVDTSASTAYMELSSLRSEDTAVYYCARESWGQGTTVTVSS VL: DVVMTQSPLSLPVTLGQPASISCKSSQSLLHSDAKTYLNWLQQRPGQSPRRLIYLVSKLDSRVPDRFSGSGSGTDFTLKISRVEAEDLGVYYCFQGTHFPHTFGQGTKLEIK"
2.8 nM,0.00015 s⁻¹,53000 M⁻¹ s⁻¹,0.205 nM,9.6e-06 s⁻¹,48000 M⁻¹ s⁻¹,–,–,–,–,–,–,"hACI-7069-633B12-Ab1_H19L18 (IgG1 isotype) (antibody, V domains shown, Human IgG1 / kappa; also called hACI-7069-633B12-Ab1_H19L18 (hIgG1 isotype)) VH: QVQLVQSGAEVKKPGASVKVSCKTSGFTFTEYSMHWVRQAPGQRLEWIGGINPGNAGTSYNQKFKGRVTITVDTSASTAYMELSSLRSEDTAVYYCARESWGQGTTVTVSS VL: DVVMTQSPLSLPVTLGQPASISCKSSQSLLHSDAKTYLNWLQQRPGQSPRRLIYLVSKLDSRVPDRFSGSGSGTDFTLKISRVEAEDLGVYYCFQGTHFPHTFGQGTKLEIK"
2.4 nM,9.3e-05 s⁻¹,39000 M⁻¹ s⁻¹,0.15 nM,8.4e-06 s⁻¹,58000 M⁻¹ s⁻¹,–,–,–,–,–,–,"cACI-7069-633B12-Ab1 (human IgG1 chimeric) (antibody, V domains shown, also called chimeric antibody) VH: EVQLQQSGPELVKPGASVKISCKTSGFTFTEYSMHWVKQSHGKSLEWIGGINPNNGGTSYNQKFKGKATLTVDKSSSTAYMELRSLTSEDSAVYYCARESWGQGTTLTVSS VL: not shown"

# — US20230322908A1 (AC IMMUNE, published 2023)
